This passage reports photo-cross-linking yield of the covalent dimer results from paper PMC5423124.

The target of the assay is Schistosoma japonicum glutathione-S-transferase with mPyTK at position 52 (GST-E52mPyTK) (Schistosoma japonicum) [GST: P08515]. Nature of the assay: cross-linking.

“Schistosoma japonicum glutathione-S-transferase with mPyTK at position 52 (GST-E52mPyTK) (from UniProt P08515 2-218) (enzyme)” had a photo-cross-linking yield of the covalent dimer of 53%.
